Measured values as given in patent US20130289246A1.
Positions count from the first letter of the chain named.

Legend:
[1] = molecular target: HA of A/swine/Iowa/15/1930 (H1N1) virus (Influenza A virus (H1N1)); test: cell-based or functional assay
[2] = molecular target: HA of A/Weiss/1943 (H1N1) virus (Influenza A virus (H1N1)); test: cell-based or functional assay
[3] = molecular target: HA of A/South Carolina/1/1918 (H1N1), wild type, on VLP (Influenza A virus A/South Carolina/1/1918 (H1N1)) (UniProt Q9WFX3); test: cell-based or functional assay
[4] = molecular target: HA of A/New Caledonia/20/1999 (H1N1) virus (Influenza A virus (H1N1)); test: cell-based or functional assay
[5] = molecular target: HA of A/USSR/92/1977 (H1N1) virus (Influenza A virus (H1N1)); test: cell-based or functional assay
[6] = molecular target: HA of A/L3/1947 (H1N1) virus (Influenza A virus (H1N1)); test: cell-based or functional assay
[7] = molecular target: HA of A/California/04/2009 (H1N1) virus (Influenza A virus (H1N1)); test: cell-based or functional assay
[8] = molecular target: HA of A/Brisbane/59/2007 (H1N1) virus (Influenza A virus (H1N1)); test: cell-based or functional assay
[9] = molecular target: HA of A/New Jersey/11/1976 (H1N1) virus (Influenza A virus (H1N1)); test: cell-based or functional assay
[10] = molecular target: soluble 2004 H5 HA (Influenza A virus (H5N1, 2004)); test: ELISA, supernate
[11] = molecular target: recombinant soluble 1957 H2 HA (A/Japan/305+/1957) (Influenza A virus A/Japan/305+/1957 (H2N2)); test: ELISA, supernate
[12] = molecular target: recombinant soluble trimeric 2009 H1 HA (A/California/04/2009, wild type) (Influenza A virus A/California/04/2009 (H1N1)); test: ELISA, supernate
[13] = molecular target: soluble 1999 H1 HA (seasonal 1999 H1N1) (Influenza A virus (H1N1, 1999)); test: ELISA, supernate; also: test concentration or dose not given here
[14] = molecular target: recombinant soluble trimeric 2009 H1 HA (A/California/04/2009, wild type) (Influenza A virus A/California/04/2009 (H1N1)); test: biolayer interferometry (Octet Red), His-tagged HA on anti-Penta-HIS tips
[15] = molecular target: recombinant soluble 1968 H3 HA (A/Aichi/2/1968) (Influenza A virus A/Aichi/2/1968 (H3N2)) (UniProt P03437); test: ELISA, supernate
[16] = molecular target: recombinant soluble trimeric 1918 H1 HA (A/South Carolina/1/1918, wild type) (Influenza A virus A/South Carolina/1/1918 (H1N1)) (UniProt Q9WFX3); test: ELISA, supernate

B1: mAb 6D9 (antibody, V domains shown)
VH: EVQLVESGGGLVQPGGSLRLSCAASGFIFESYWMTWVRQAPGKGLEWVANIKQDGSEKNYVDSVKGRFTISRDNAKTSLYLQMNSLRAEDTAMYYCARSGSNWDTYYYYYGMDVWGQGTTVTVS
VL: EIVLTQSPGTLSLSPGERATLSCRASQSVDSNYLGWYQQRPGQAPRLLIYGASSRATGVPDRFSASGSGTDFTLSISRLEPEDFAVYYCQQYGSSFGQGTKVEIKR
In the case of B1, the HAI activity [1] is reported as 0.4 µg/mL, the HAI activity [2] is reported as > 20 µg/mL and the HAI activity [3] is reported as 0.2 µg/mL. The HAI activity [4] was > 20 µg/mL, the HAI activity [5] was 2.5 µg/mL and the HAI activity [6] was > 20 µg/mL. For the same binder, the HAI activity [7] was 0.7 µg/mL, the HAI activity [8] was > 20 µg/mL and the HAI activity [9] was 1.3 µg/mL.

B2: mAb 5J8 (antibody, V domains shown)
VH: EVQLVESGPGLVKPSDILSLTCAVSGYSISSNYYWGWIRQPPGKGLEWIGSIYHSGSTYYKPSLESRLGISVDTSKNQFSLKLSFVSAADTAVYYCARHVRSGYPDTAYYFDKWGQGTLVTVS
VL: SYVLTQPPSVSVAPGETARISCGGNNIGTKVLHWYQQTPGQAPVLVVYDDSDRPSGIPERFSGSNSGNTATLTISRVEVGDEADYYCQVWDISTDQAVFGGGTKLTVLG
Binder B2 has an OD [10] of 0.077 OD, an OD [11] of 0.077 OD and an OD [12] of 1.93 OD. The OD [13] was 1.46 OD.

B3: 5J8 Fab (Fab, V domains shown)
VH: B2 VH
VL: B2 VL
Binder B3 has a Kd [14] of 26 nM, a koff [14] of 0.0065 s⁻¹ and a kon [14] of 250000 M⁻¹ s⁻¹.

B4: mAb 18G6 (antibody, V domains shown)
VH: QVQLKESGPGLVKPSETLSLTCTVSGGSISSSNYNWGWIRQPPGKGLEWIGSVYYSGSTYFNPSLKSRVTISVDTSKNQFSLKLTSVTAADTAVYYCARLIAFYYDTNGYTWGQGTLVTVS
VL: NSIMTQSPFTLSASVGDKVTITCRASQSISPWLAWYQQKPGKAPKLLIYKASSLETGVPSRFSGSESGTEFTLTISGLQPDDFATYYCQQYSSFARTFGQGTKVEIKR
B4 was tested, and the OD [10] was 0.071 OD, the OD [11] was 0.757 OD and the OD [12] was 0.071 OD. It also gave an OD [13] of 0.071 OD.

B5: mAb 25J3 (antibody, V domains shown)
VH: QVQLQESGPGLVRPSETLSLTCNVSGDSINDYYWSWIRQPPGKGLEWIGYIYYSGSTNYNPSLNSRVTISVEMSKNQFSLILNSVTAADTAVYYCARVDYDSGGSFDPWGQGTLVTVS
VL: QSVLTQPPSVSGAPGQRVTISCTGSSSNIGAGYDVHWYQQLPGTAPKLLIYGNSNRPSGVPDRFSGSKSGTSASLAITGLQAEDEADFYCQSYDSRLSGYVFGTGTKVTVLG
In the case of B5, the OD [10] is reported as 0.07 OD, the OD [11] is reported as 0.07 OD and the OD [12] is reported as 0.071 OD. It also gave an OD [13] of 0.071 OD.

B6: mAb 3J10 (antibody, V domains shown)
VH: EVQLVESGGGVVQPGRSLRLSCAASGFSFSNYAMHWVRQAPGKGLEWVALISFDGSDKYYADSVKGRFTMSRDNSKNTLYLQMNSLRAEDTAVYYCARDEPYCGGDCFAFDVWGQGTMVTVS
VL: B5 VL with G52A, S54N, F88Y, R96S, Y100G, K107T
In the case of B6, the OD [15] is reported as 0.076 OD, the OD [10] is reported as 0.075 OD and the OD [11] is reported as 0.074 OD. For the same binder, the OD [16] was 0.069 OD, the OD [12] was 0.073 OD and the OD [13] was 0.711 OD.

B7: mAb 8F24 (antibody, V domains shown)
VH: EVQLLESGGGLVQPGGSLRLSCAASGFAFSSYGMSWVRQAPGKGLEWVSAFSGSGTSTYYADSVKGRFTISRDKSKNTLYLQMNSLRAEDTAIYYCAKPPGPYIVVAGLFENWGRGTLVTVS
VL: EIVMTQSPATLSVSPGERVTLSCRASQSITDGLAWYQQKSGQAPRLLIYGASTRATGIPARFSGSGSGTEFTLTISSLQSEDFAVYYCQQYNNWPPVTFGQGTKVEIKR
B7 showed an OD [15] of 0.669 OD, an OD [10] of 0.074 OD and an OD [11] of 0.073 OD. The OD [16] was 0.209 OD, the OD [12] was 0.714 OD and the OD [13] was 1.01 OD.

B8: mAb 25F7 (antibody, V domains shown)
VH: B7 VH
VL: QSVLTQPPSVSGAPGQRVTISCTGTSSNIGAGYEVHWYQQLPGTAPKLIINANTNRPSGVPDRFSGSQSGTSASLAITGLRAEDEADYYCQSFDSSLSGWLFGGGTKLTVLG
B8 was tested, and the OD [15] was 0.085 OD, the OD [10] was 0.076 OD and the OD [11] was 0.871 OD. For the same binder, the OD [16] was 0.075 OD, the OD [12] was 0.078 OD and the OD [13] was 0.077 OD.

B9: mAb 3E22 (antibody, V domains shown)
VH: EVQLVESGAEVKKPGASVKVSCKASGYTFSRYYIHWVRQAPGQELEWMGWINPDSGDTNYAQKFRGRVTMARDTSISTVYMELNSLRYDDTAVYFCARIIWSSSGMDVWGQGTTVTVS
VL: QSALTQPASVSGSPGQSITISCTGTSSDVGSYNLVSWYQQHPGKAPKLMIYEVSKRPSGVSNRFSGSKSGNTASLTISGLQAEDEADYYCHLYVGSSNWVFGGGTKLAVLG
In the case of B9, the OD [10] is reported as 1.57 OD, the OD [11] is reported as 1.18 OD and the OD [12] is reported as 2.38 OD. The OD [13] was 2.06 OD.

B10: mAb 6K14 (antibody, V domains shown)
VH: EVQLVESGAEVKKPGASVKVSCKASGYTFTSFDINWVRQAPGQGLEWMGWMTPTSGKTGYAQKFQGRITMTRNTSINTAYMELSSLRSEDTAVYFCARGPERRTTIFDVILDWFDPWGQGTLVTVS
VL: DIVMTQSPFSLSLSPGERATLSCRASQSISNYLAWYQQKPGQAPRLLIYDSSNRATGVPARFSGSGSGTDFTLTISSLEPEDFAVYYCQQRSNWMYTFGQGTKVEIKR
Binder B10 has an OD [10] of 1.12 OD, an OD [11] of 1.93 OD and an OD [12] of 2.12 OD. The OD [13] was 0.203 OD.

B11: mAb 11J19 (antibody, V domains shown)
VH: EVQLQESGPGLVKPSETLSLSCTVSGGSITRSSYYWGWIRQPPGKGLEWIGNIYYSGTTYYNPSLKSRVTISVDTSKNQFSLKLSSVTAADTAVYYCARLYGSGLDYWGQGTLVTVS
VL: DIQLTQSPSFLSASVGDRVTITCRASQGSSRYVAWYQQKPGKAPKLLILAASTLHTGVPSRFSGSGSGTEFTLTISSLQPEDFATYSCQQLNGFLLTFGGGTKVEIKR
With B11 the OD [10] was 0.067 OD, the OD [11] was 0.079 OD and the OD [12] was 0.081 OD. For the same binder, the OD [13] was 0.071 OD.

B12: mAb 4K8 (antibody, V domains shown)
VH: EVQLVESGGGLVQPGGSLRLSCAASEFNFKSYWMTWVRQAPGKGLEWVANINQDGSEKNYVDSVKGRFTISRDNAKNSLHLQMSSLRVDDTAVYYCARTGSSWDTYYYYYAMDVWGQGTTVTVS
VL: DIQLTQSPVSLSLSPGERATLSCRASQSVSSSYLVWYQQKPGQAPRLLIYGASSRAPGIPDRFSGSGSGTDFTLTISRLEREDFAVYYCQQYGRSFGQGTKVEIKR
With B12 the HAI activity [1] was < 0.01 µg/mL, the HAI activity [2] was > 20 µg/mL and the HAI activity [3] was < 0.01 µg/mL. The HAI activity [4] was > 20 µg/mL, the HAI activity [5] was 0.32 µg/mL and the HAI activity [6] was > 20 µg/mL. For the same binder, the HAI activity [7] was < 0.01 µg/mL, the HAI activity [8] was > 20 µg/mL and the HAI activity [9] was 0.16 µg/mL.

B13: mAb 2O10 (antibody, V domains shown)
VH: EVQLVESGGGLVQPGGSLRLSCAASGFTFNSYWMTWVRQAPGKGLEWVANINQDGSEKFFVDSVKGRFTISRDNAKTSLYLQMNSLRVEDTAVYYCAREGAPYDTYYYYYAMDVWGQGTTVTVS
VL: QSVLTQPPSVSGAPGQRVTISCTGTSSNIGAGYGVHWYQQLPGAAPKLLVYGNSNRPSGVPDRFSGSKSGTSASLAITGLQAEDEADYYCQSYDISLSGSNVFGTGTKVTVLG
Binder B13 has an OD [10] of 0.072 OD, an OD [11] of 0.073 OD and an OD [12] of 1.62 OD. It also gave an OD [13] of 0.872 OD.

B14: mAb 10E15 (antibody, V domains shown)
VH: EVQLLESGGGVVQPGRSLRLSCAASGFTFRTYGMHWVRQAPGKGLEWVAVISHDGNLKYYGGSVKGRFTISRDNSKNALYLQMNSLRVDDTALYYCARGIGITDAFDIRGQGTMVVVS
VL: QSVLTQPPSVSAAPGQKVTISCSGSSSNIGKNYVSWYQQLPGTAPKLLIYDNDKRPSGIPDRFSGSKSGTSATLGITGLQTGDEADYHCGAWDSSLNGGVFGGGTKVTVLG
For B14, the OD [10] was 1.69 OD, the OD [11] was 0.485 OD and the OD [12] was 0.996 OD. It also gave an OD [13] of 0.514 OD.

B15: mAb 2K11 (antibody, V domains shown)
VH: EVQLVESGGGLVQPGGSLRLSCVASTFSLINYWMTWVRQAPGKGLEWVANIKQDGFEKYYVDSVKGRFTISRDNAKNSLYLQMNSLRVEDTAVYYCARQGSYADTYFYHYGMDVWGQGTTVTVS
VL: QSALTQPPSVSGAPGQRVTISCTGSSSNIGAGYDAYWYQQLPGTAPKLLIYGNSNRLSGVPDRFSASKSGTSASLAITGLQAEDEADYYCQSYDSSLSIFGGGTKLTVLR
For B15, the OD [10] was 0.075 OD, the OD [11] was 0.08 OD and the OD [12] was 1.28 OD. It also gave an OD [13] of 0.518 OD.
